Results on 46 substances are retold here after patent US11230581B2, “Peptides and combination of peptides for use in immunotherapy against ovarian cancer and other cancers” (Immatics Biotechnologies GmbH, priority 2015, dated 2022).

The target in the test is HLA-A*02:01 (Homo sapiens, UniProt P04439, D140Y/D185E/D98H/E176V/E277Q/G131W/G231S/I119V/I121R/I166T/I218V/L300P/L318F/N151K/N90K/P208A/P217A/Q86G/Q94H/R138H/R169H/T345S). The experiment in a line: MHC binding assay (UV-ligand exchange, β2m ELISA, peptide exchange yield). The conditions noted are these: binding of HLA-class I restricted peptides to HLA-A*02:01, UV-ligand exchange. In outline: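 Yield of stabilized complexes quantified via the β2m light chain in an ELISA (streptavidin capture, 100-fold diluted monomers, HRP anti-β2m 2 ug/ml at 37 °C, TMB, A450). The complexes come from UV-triggered replacement of a photocleavable ligand by the candidate peptide.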
Regarding “217 (ALIHPVSTV; listed as Homo sapiens) [compound 217]”, the “Peptide exchange (MHC class I binding score, peptide exchange yield)” value (“Peptide exchange” for short) is listed as ““++” (≥20% = ++)”.
With “479 (SLFGNSGILENV; listed as Homo sapiens) [compound 479]”, the “Peptide exchange” value was ““+++” (≥50 = +++)”.
In the case of “541 (SMLEPVPEL; listed as Homo sapiens) [compound 541]”, the “Peptide exchange” value is on record as ““+++” (≥50 = +++)”.
Turning to “103 (TLAEEVVAL; listed as Homo sapiens) [compound 103]”, the “Peptide exchange” value was ““+++” (≥50 = +++)”.
As for “493 (GLLGEKTQDLIGV; listed as Homo sapiens) [compound 493]”, the “Peptide exchange” value was ““+++” (≥50 = +++)”.
As for “9 (GAAKDLPGV; listed as Homo sapiens) [compound 9]”, the “Peptide exchange” value is on record as ““++” (≥20% = ++)”.
Consider “271 (LVYPLELYPA; listed as Homo sapiens) [compound 271]”, for which the “Peptide exchange” value is ““+++” (≥50 = +++)”.
The same measure for “302 (ALLQEGEVYSA; listed as Homo sapiens) [compound 302]”: ““+++” (≥50 = +++)”.
As for “613 (RLLPPGAVVAV; listed as Homo sapiens) [compound 613]”, the entry is ““+++” (≥50 = +++)”.
As for “390 (ALFMKQIYL; listed as Homo sapiens) [compound 390]”, the entry is ““+++” (≥50 = +++)”; as for “340 (ALLSMTFPL; listed as Homo sapiens) [compound 340]”, ““++++” (≥75% = ++++)”.
With “119 (FLYIGDIVSL; listed as Homo sapiens) [compound 119]”, the “Peptide exchange” value is recorded as ““++++” (≥75% = ++++)”.
As to “125 (VQIHQVAQV; listed as Homo sapiens) [compound 125]”, the “Peptide exchange” value is reported as ““+++” (≥50 = +++)”.
With “383 (ALLELENSVTL; listed as Homo sapiens) [compound 383]”, the “Peptide exchange” value is on record as ““+++” (≥50 = +++)”.
Take “394 (LLAVIGGLVYL; listed as Homo sapiens) [compound 394]”: the “Peptide exchange” value is ““+++” (≥50 = +++)”.
On to “401 (ILLDDTGLAYI; listed as Homo sapiens) [compound 401]”, for which the “Peptide exchange” value is on record as ““+++” (≥50 = +++)”.
The same measure for “145 (FLATSGTLAGI; listed as Homo sapiens) [compound 145]”: ““++” (≥20% = ++)”; for “500 (SLMEDQVLQL; listed as Homo sapiens) [compound 500]”: ““+++” (≥50 = +++)”; for “303 (AILPQLFMV; listed as Homo sapiens) [compound 303]”: ““++++” (≥75% = ++++)”.
For the substance “51 (LLPDLEFYV; listed as Homo sapiens) [compound 51]”, the “Peptide exchange” value was ““++++” (≥75% = ++++)”.
For the substance “492 (SLFDGFADGLGV; listed as Homo sapiens) [compound 492]”, the “Peptide exchange” value was ““+++” (≥50 = +++)”.
On to “544 (LLWDVPAPSL; listed as Homo sapiens) [compound 544]”, for which the “Peptide exchange” value was ““+++” (≥50 = +++)”.
As for “402 (VLFSGALLGL; listed as Homo sapiens) [compound 402]”, the “Peptide exchange” value was ““++” (≥20% = ++)”.
Consider “580 (LLMENAERV; listed as Homo sapiens) [compound 580]”, for which the “Peptide exchange” value is listed as ““++” (≥20% = ++)”.
As for “305 (SIANFSEFYV; listed as Homo sapiens) [compound 305]”, the “Peptide exchange” value is listed as ““++++” (≥75% = ++++)”.
The same measure for “550 (FLYDEIEAEVNL; listed as Homo sapiens) [compound 550]”: ““+++” (≥50 = +++)”.
As for “397 (YLFGERLLEC; listed as Homo sapiens) [compound 397]”, the entry is ““+++” (≥50 = +++)”; as for “136 (YLADPSNLFVV; listed as Homo sapiens) [compound 136]”, ““+++” (≥50 = +++)”; as for “601 (SAFPFPVTV; listed as Homo sapiens) [compound 601]”, ““+++” (≥50 = +++)”.
On to “474 (YLDPALELGPRNV; listed as Homo sapiens) [compound 474]”, for which the “Peptide exchange” value was ““+++” (≥50 = +++)”.
Regarding “503 (SLNHFTHSV; listed as Homo sapiens) [compound 503]”, the “Peptide exchange” value was ““+++” (≥50 = +++)”.
Consider “572 (ALADLIEKELSV; listed as Homo sapiens) [compound 572]”, for which the “Peptide exchange” value is on record as ““+++” (≥50 = +++)”.
As to “122 (FLLAEDDIYL; listed as Homo sapiens) [compound 122]”, the “Peptide exchange” value is given as ““+++” (≥50 = +++)”.
For “57 (TLAELQPPVQL; listed as Homo sapiens) [compound 57]”, the “Peptide exchange” value was ““+++” (≥50 = +++)”.
As to “337 (HLLSELEAAPYL; listed as Homo sapiens) [compound 337]”, the “Peptide exchange” value was ““++++” (≥75% = ++++)”.
As for “63 (YLLPSGGSVTL; listed as Homo sapiens) [compound 63]”, the entry is ““++” (≥20% = ++)”; as for “95 (SVIPQIQKV; listed as Homo sapiens) [compound 95]”, ““+++” (≥50 = +++)”.
In the case of “230 (ILVDWLVEV; listed as Homo sapiens) [compound 230]”, the “Peptide exchange” value was ““+” (≥10% = +)”.
For “583 (ILANDGVLLAA; listed as Homo sapiens) [compound 583]”, the “Peptide exchange” value is on record as ““+++” (≥50 = +++)”.
As for “297 (VLADIELAQA; listed as Homo sapiens) [compound 297]”, the “Peptide exchange” value is on record as ““+++” (≥50 = +++)”.
As to “278 (QLLDVVLTI; listed as Homo sapiens) [compound 278]”, the “Peptide exchange” value is reported as ““++” (≥20% = ++)”.
In the case of “256 (FLPPEHTIVYI; listed as Homo sapiens) [compound 256]”, the “Peptide exchange” value is listed as ““+++” (≥50 = +++)”.
For “32 (KLDDLTQDLTV; listed as Homo sapiens) [compound 32]”, the “Peptide exchange” value was ““++” (≥20% = ++)”.
The same measure for “272 (ALGNTVPAV; listed as Homo sapiens) [compound 272]”: ““+++” (≥50 = +++)”.
With “6 (VLVSDGVHSV; listed as Homo sapiens) [compound 6]”, the “Peptide exchange” value is reported as ““+++” (≥50 = +++)”.
With “146 (SLATAGDGLIEL; listed as Homo sapiens) [compound 146]”, the “Peptide exchange” value is ““++” (≥20% = ++)”.
